Laboratory results taken from patent US20050164920A1 (Pfizer, published 2005).
Each block holds one binder with its values, some of them ahead of it. Positions of bridges follow the written chain, without caps; N, C: chain ends.

Molecular target: TrkB receptor on rat cerebellar neurons (rat, UniProt Q63604 32-821)
Assay: cell-based or functional assay

Sequence of TrkB receptor on rat cerebellar neurons (Q63604 32-821): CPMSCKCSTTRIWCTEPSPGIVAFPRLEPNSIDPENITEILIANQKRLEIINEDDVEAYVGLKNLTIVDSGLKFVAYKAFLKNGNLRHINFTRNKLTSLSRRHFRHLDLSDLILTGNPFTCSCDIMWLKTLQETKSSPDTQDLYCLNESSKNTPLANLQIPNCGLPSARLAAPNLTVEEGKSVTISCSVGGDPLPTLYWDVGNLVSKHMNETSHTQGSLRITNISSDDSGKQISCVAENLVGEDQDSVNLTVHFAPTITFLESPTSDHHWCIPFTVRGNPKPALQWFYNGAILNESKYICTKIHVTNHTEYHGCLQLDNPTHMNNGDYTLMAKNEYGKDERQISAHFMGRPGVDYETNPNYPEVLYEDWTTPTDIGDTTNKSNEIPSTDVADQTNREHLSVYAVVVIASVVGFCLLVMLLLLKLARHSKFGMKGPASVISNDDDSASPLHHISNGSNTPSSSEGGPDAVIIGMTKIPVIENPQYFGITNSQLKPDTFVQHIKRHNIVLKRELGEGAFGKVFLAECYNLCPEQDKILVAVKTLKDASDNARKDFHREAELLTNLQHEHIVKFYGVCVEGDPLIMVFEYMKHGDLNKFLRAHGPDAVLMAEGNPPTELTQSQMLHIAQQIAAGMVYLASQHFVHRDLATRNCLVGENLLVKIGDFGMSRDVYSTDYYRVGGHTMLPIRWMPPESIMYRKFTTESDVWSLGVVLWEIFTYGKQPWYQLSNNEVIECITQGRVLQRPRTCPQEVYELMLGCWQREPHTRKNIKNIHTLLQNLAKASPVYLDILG

B1: N-Ac-CSRRGEC-NH2 (peptide)
peptide: Ac-CSRRGEC-NH2
modifications: disulfide 1-7
SMILES: CC(=O)N[C@H]1CSSC[C@@H](C(N)=O)NC(=O)[C@H](CCC(=O)O)NC(=O)CNC(=O)[C@H](CCCNC(=N)N)NC(=O)[C@H](CCCNC(=N)N)NC(=O)[C@H](CO)NC1=O
inhibition of the BDNF response, fold against the NGF and NT-3 derived peptides: ~5 fold

B2: N-Ac-…-NH2 (peptide)
peptide: Ac-CSRRGELAASRRGELC-NH2
modifications: disulfide 1-16
SMILES: CC(=O)N[C@H]1CSSC[C@@H](C(N)=O)NC(=O)[C@H](CC(C)C)NC(=O)[C@H](CCC(=O)O)NC(=O)CNC(=O)[C@H](CCCNC(=N)N)NC(=O)[C@H](CCCNC(=N)N)NC(=O)[C@H](CO)NC(=O)[C@H](C)NC(=O)[C@H](C)NC(=O)[C@H](CC(C)C)NC(=O)[C@H](CCC(=O)O)NC(=O)CNC(=O)[C@H](CCCNC(=N)N)NC(=O)[C@H](CCCNC(=N)N)NC(=O)[C@H](CO)NC1=O
EC50 of stimulation of neurite outgrowth: ~300 nM

Continued, values first:

neurite outgrowth of rat cerebellar neurons, concentration of maximal response: 1 to 10 ng/mL
B3: neurotrophin-4 (NT-4/5), recombinant human (ligand)
chain: GVSETAPASRRGELAVCDAVSGWVTDRRTAVDLRGREVEVLGEVPAAGGSPLRQYFFETRCKADNAEEGGPGAGGGGCRGVDRRHWVSECKAKQSYVRALTADAQGRVGWRWIRIDTACVCTLLSRTGRA

increase of neurite length against control culture, BDNF at 5 ng/ml: 60 to 70% | neurite outgrowth of rat cerebellar neurons, concentration of maximal response: 1 to 10 ng/mL
B4: brain-derived neurotrophic factor (BDNF), recombinant human (ligand)
chain: HSDPARRGELSVCDSISEWVTAADKKTAVDMSGGTVTVLEKVPVSKGQLKQYFYETKCNPMGYTKEGCRGIDKRHWNSQCRTTQSYVRALTMDSKKRIGWRFIRIDTSCVCTLTIKRGR
